Target: the molecule itself
Assay: SEC; Superdex 200 10/300 GL, 50 mM Tris-HCl pH 7.6, 150 mM NaCl; 50 nmol NgCuNiR; apparent molecular weight from a calibration curve (Gel Filtration Calibration Kit, High Molecular Weight)

B1: copper-containing nitrite reductase from Neisseria gonorrhoeae, soluble domain (enzyme)
chain: AAQATAETPAGELPVIDAVTTHAPEVPPAIDRDYPAKVRVKMETVEKTMKMDDGVEYRYWTFDGDVPGRMIRVREGDTVEVEFSNNPSSTVPHNVDFHAATGQGGGAAATFTAPGRTSTFSFKALQPGLYIYHCAVAPVGMHIANGMYGLILVEPKEGLPKVDKEFYIVQGDFYTKGKKGAQGLQPFDMDKAVAEQPEYVVFNGHVGSIAGDNALKAKAGETVRMYVGNGGPNLVSSFHVIGEIFDKVYVEGGKLINENVQSTIVPAGGSAIVEFKVDIPGSYTLVDHSIFRAFNKGALGQLKVEGAENPEIMTQKLSDTAYA
notes: the construct has no signal peptide; cytoplasmic 36.5 kDa protein; Holds one type 1 and one type 2 copper centre per monomer (2.0 ± 0.1 Cu per monomer); No removal of the His-tag is described; also called NgCuNiR; AniA
- stoichiometry N: 3
